Results reported in the supplement of paper PMC9170038.

Tested on: MS2 coat protein
Assay: apparent KD of MS2 coat protein; designed switch direction (-1 OFF switch, 1 ON switch): -1; higher = weaker reporter binding
Procedure, shortened: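 Designed RNA switches sharing common flanks were transcribed on Illumina chips by stalled E. coli RNA polymerase. They were titrated with SNAP-549-labelled MS2 coat protein, from 0.7 or 1.5 nM doubling to 3 µM, in Tris-HCl pH 7.5 buffer with KCl, MgCl2, BSA, DTT, tRNA and Tween-20. Titrations ran without input, with 200 uM small-molecule ligand, or with an oligonucleotide input. The apparent KD of each design is the median over its clusters, after curve-fitting of normalised cluster fluorescence.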

[1] = Eterna round: R95, input ligand: microRNA oligo, concentration not stated
[2] = Eterna round: R95, input ligand: FMN 200 uM
[3] = Eterna round: R95, input ligand: none
[4] = input ligand: microRNA oligo, concentration not stated

Sequence | apparent KD of MS2 coat protein (input ligand: FMN 200 uM) | apparent KD of MS2 coat protein (input ligand: none) | apparent KD of MS2 coat protein [1] | apparent KD of MS2 coat protein [2] | apparent KD of MS2 coat protein [3] | apparent KD of MS2 coat protein [4]
GGCACACAUGAGGAUCACCCAUGUCAGGAUAUGUGGCGAUCGUCGAAAGACGAUAGCCACAGAAGGGACAGGCC [Eli x1 4.25] (Eterna round: R97, puzzle: Exclusion 1) | 68.7 nM | 49.8 nM |  |  |  | 
AUACCACGAGGAUAUCGUCUAUUUCACAUGAGGAUCACCCAUGUUAUCUUUGUUUUGUUUCGAGAAGGCGUGUUUU [JR_E5_Sub078] (puzzle: Exclusion 5) |  |  | 28.1 nM |  |  | 
AAUAAAAGCGAGGAUAUCGUAUCGGAAACGAUACGAGAAGGCGUAACAUGAGGAUCACCCAUGUGUCCUCAAUA [Mat - Exclusion 6 - Eli Mod - D8] (Eterna round: R97, puzzle: Exclusion 6) | 1260 nM | 130 nM |  |  |  | 
AAAUAGUAGCAGGAUAUGAGUAUUAUUGGAAGCUCAGAAGGGCUGACAUGAGGAUCACCCAUGUGUUAUGUCGG [Eternabot (L1) Solution 54] (Eterna round: R97, puzzle: Exclusion 6) | 49.1 nM | 177 nM |  |  |  | 
AGUCUGCUAGGAUAUACAUGAGGAUCACCCAUGUCUAUCAAUAGACUAUUAACCUGGUGUAGAAGGAGCUUGUA [Onatlacein] (puzzle: Exclusion 3) |  |  | 11.1 nM |  |  | 
CCGGCCGCCGUGAGGAUAUGCCCGCGCGCCCGCGGGCAGAAGGCACAUGAGGAUCACCCAUGUCCCGCGGUCCC [salish99_bmx4_r4_123] (Eterna round: R97, puzzle: Brourd's mod of Exclusion 4) | 35.8 nM | 15.6 nM |  |  |  | 
GUCAUCAAACAUGGGAUCAACAUGAGGAUCACCCAUGUUGUCAAGUUUUUUGCUCGUCUUAUAAUACGUUUGAUGAC [Mod-Jxb] (Eterna round: R97, puzzle: Sensor, turn-off variant 1) | 16 nM | 16.4 nM |  |  |  | 
CCAGGCGUCUUUGCUCGUCUUAUUUGGAGAGGACUGAUAACAUGAGGAUCACCCAUGUGUGUGGGAGCGUUGCAGUG [JR_SV3TOV2_Sub020] (puzzle: Sensor v3, turn-off variant 2) |  |  | 161 nM | 86.3 nM | 116 nM | 
UUAUAUAGGUAGGAUAUCGAUUUUAAUUAAUAUCGAGAAGGGUCAACAUGAGGAUCACCCAUGUCAGCAUGUAU [LRO-Excl6-04-Rocketman] (Eterna round: R97, puzzle: Exclusion 6) | 60 nM | 55.1 nM |  |  |  | 
GUUGUGUGAGGAUAUGCCUGGCCGUGAGGCCGGAUUGGGUGGCAGAAGGUACAUGAGGAUCACCCAUGUACGGG [salish99_ex4_4_007] (Eterna round: R97, puzzle: Exclusion 4) | 45.4 nM | 30.9 nM |  |  |  | 
GAUUAUGCGAGCUUUAGGGACAUGAGGAUCACCCAUGUUCGUCUUAUUAGUCUGAGUACACUGACAUACCUAAAUCU [JMF 62] (puzzle: Sensor v3, turn-off variant 1) |  |  | 14.8 nM | 14.2 nM | 13.3 nM | 
GUAACAACUAGAGGAUAUCAGCACGUUUAGUGCUGAGAAGGCUAGAGUUACAUGAGGAUCACCCAUGUCUAGAGAUCAUUAAUU [ENG1/13-A2] (Eterna round: R96, puzzle: Exclusion NG 1) | 177 nM | 83.8 nM |  |  |  | 66.3 nM
GAUUAUGCGAGCUUUAGGGACAUGAGGAUCACCCAUGUUCGUCUUAUUGGUCUGGGUACACUGACAUACCUAAAUCU [JMF 72] (puzzle: Sensor v3, turn-off variant 1) |  |  | 42.2 nM | 33.9 nM | 32.4 nM | 
UCGACGUCGUCAGGAUAUAGUCUUAAUGUCAUGCUUUUGUUCGUACAUGAGGAUCACCCAUGUGGCUAGAAGGGACUAAAGUUU [JR_ExcNG2_Sub016] (Eterna round: R96, puzzle: Exclusion NG 2) | 16.1 nM | 26.9 nM |  |  |  | 11.7 nM
AUAACAAGCUUUUUUUUCGUAGUACAUGACGCUCGAGUCACAUGAGGAUCACCCAUGUCUUCCUGUUUGAUUGUUGA [JR_SV3TOV2_Sub058] (puzzle: Sensor v3, turn-off variant 2) |  |  | 54.7 nM | 45.8 nM | 54.6 nM | 
ACUGGAGCAGGAUAUGCAUUCGUGCUUCGGCACGUAAGGUCACAUGAGGAUCACCCAUGUAGAAGGGCUCCAGU [E2/6-D1] (Eterna round: R97, puzzle: Exclusion 2) | 32.9 nM | 19.7 nM |  |  |  | 
GAUCGACAUGAGGAUCACCCAUGUCAGGAUAUGCAACGGACAAAACGAUACGUCAUAGGUAGAAGGGACUGUCU [Eternabot (Original) Solution 2] (Eterna round: R97, puzzle: Exclusion 1) | 18.4 nM | 17.7 nM |  |  |  | 

Sequence | apparent KD of MS2 coat protein (input ligand: FMN 200 uM) | apparent KD of MS2 coat protein (input ligand: none) | apparent KD of MS2 coat protein [1] | apparent KD of MS2 coat protein [2] | apparent KD of MS2 coat protein [3] | apparent KD of MS2 coat protein [4]
AAGUAUAGAGGAUAUAGUGAGUACUACAUGAGGAUCACCCAUGUUCUUCAAAGCGUAUUUCUAGAAGGCUGUUAAA [EX-5 Malc#18] (puzzle: Exclusion 5) |  |  | 48.7 nM | 123 nM | 53.1 nM | 
GUCAGCUCGUGAGGAUAUACAUGAGGAUCACCCAUGUGGUCAAUAGCAGCUUCGGCUGCAUACAUGUAGAAGGCACGAGCUGAC [ENG2/7-A1] (Eterna round: R96, puzzle: Exclusion NG 2) | 59.7 nM | 30.7 nM |  |  |  | 9.59 nM
GCAUGAAAUGUGAGGAUAUACCUCUGGAUACAUAGGUAGAAGGCACAUGAGGAUCACCCAUGUCCUAAACAUGC [Fiskers BMX 4 - 27] (puzzle: Brourd's mod of Exclusion 4) |  |  | 32.2 nM |  |  | 
AGUACUAACACGAAAGUGUUUGUACAAUAAGCUUGUGAAACAUGAGGAUCACCCAUGUCCUCAUAAGCUCGUCUUAU [salish99_TOv2_r3_035] (puzzle: Sensor v3, turn-off variant 2) |  |  | 580 nM | 17.5 nM | 17.1 nM | 
ACAUGACUGCUAGGAUAUAGAUGACAUGAGGAUCACCCAUGUUGUCCCAUGUUUAUGGAAACGGACUAGAAGGAGUAGUAUAUG [Ex NG2 #14] (Eterna round: R96, puzzle: Exclusion NG 2) | 30.7 nM | 27.9 nM |  |  |  | 23.4 nM
UCCGGGUUUGUAGGAUAUAGUCUGCUUUGCAGACUAGAAGGACAUGAGGAUCACCCAUGUUGUGGAAAUUUGGGAUGUUCCUUU [random2] (Eterna round: R96, puzzle: Exclusion NG 1) | 176 nM | 189 nM |  |  |  | 27.4 nM
UCUCAGAUAGGAUAUACGUUGGCGGUAGAUCGGGUUUAAAUACAUGAGGAUCACCCAUGUAGAAGGAUCGAGGG [EX2 C.8] (Eterna round: R97, puzzle: Exclusion 2) | 94.4 nM | 104 nM |  |  |  | 
GUAAAGUGAGGAUAUGGUAAUUUAAUUAUUAAUUAAUUAAUCCAGAAGGCACAUGAGGAUCACCCAUGUAAAUG [Mat - Exclusion 4 - D90] (puzzle: Exclusion 4) |  |  | 31.6 nM |  |  | 
CCGUGAGGUAAUAAUCAGUACAUGAGGAUCACCCAUGUCAAGAAGUUGCUCGUCGGUCGGAAAUACGGACGACCCAU [Eternabot (Original) Solution 50] (Eterna round: R97, puzzle: Sensor, turn-off variant 1) | 19.1 nM | 17.9 nM |  |  |  | 
GAGUUAGCGUGUGGCACAUACAUGAGGAUCACCCAUGUUAGCUUAUAUAUUGCUCGUCUUAUAACAACACUUAACUG [Mod JX-Electric-eye5] (Eterna round: R97, puzzle: Sensor, turn-off variant 1) | 22.5 nM | 23.9 nM |  |  |  | 
AAAUCAGAGGAGGAUAUGGUAUAGGAAAUGGUGCCAGAAGGUUUCACAUGAGGAUCACCCAUGUCAAAUAGUGA [EX6 #62] (Eterna round: R97, puzzle: Exclusion 6) | 49.2 nM | 60.4 nM |  |  |  | 
AAGAAACAUGAGGAUCACCCAUGUGAGGAUAUGAAAAAGAAAAGAAAAGAAAGAAGAAUCAGAAGGCACAAAGC [salish99-ex1_r3_090] (puzzle: Exclusion 1) |  |  | 28.6 nM | 22.5 nM | 32.1 nM | 
UGAAUAAUAGUAAGGAUAUCAGCCGCGAAAGUGGCUGAGAAGGUACAUGAGGAUCACCCAUGUGAAAUAAGAAU [Mod of Zala 19 - Jieux - Brourd's Mod of Exclusion 4] (Eterna round: R97, puzzle: Brourd's mod of Exclusion 4) | 27.1 nM | 19.8 nM |  |  |  | 
AAAUGUUCGGAGGAUAUAGAACGAUUGUCCGAGCUAGAAGGCCGAACAUGAGGAUCACCCAUGUGUACCUGAAA [Atmare] (puzzle: Exclusion 6) |  |  | 38.8 nM | 256 nM | 41.2 nM | 
AAUUUACAUGAGGAUCACCCAUGUGAGGAUAUAUGUUUUAAUUUUUUUUUUUUUUUUCAUAGAAGGCGCGUGAU [JR_Exc1_Sub047] (Eterna round: R97, puzzle: Exclusion 1) | 49.4 nM | 43.5 nM |  |  |  | 
UAUGGUAAAGUCAGGAUAUACGUGCAGAAUUCUAGGUAGAAGGGACAUGAGGAUCACCCAUGUAUGGUAGUGUU [Ex4 #44] (Eterna round: R97, puzzle: Brourd's mod of Exclusion 4) | 146 nM | 104 nM |  |  |  | 
AGUAUGCGGCAGGAUAUCCAUCCGCGGAAAGGUGGAGAAGGGCUGACAUGAGGAUCACCCAUGUGCGUCCUGUA [salish99_ex6_r4_029] (Eterna round: R97, puzzle: Exclusion 6) | 33.5 nM | 20.4 nM |  |  |  | 
